Measurements as given in IntAct's records for PubMed 16254079.

B1: Proliferation-associated protein 2G4 (Homo sapiens), Q9UQ80 (parent)
chain: MSGEDEQQEQTIAEDLVVTKYKMGGDIANRVLRSLVEASSSGVSVLSLCEKGDAMIMEETGKIFKKEKEMKKGIAFPTSISVNNCVCHFSPLKSDQDYILKEGDLVKIDLGVHVDGFIANVAHTFVVDVAQGTQVTGRKADVIKAAHLCAEAALRLVKPGNQNTQVTEAWNKVAHSFNCTPIEGMLSHQLKQHVIDGEKTIIQNPTDQQKKDHEKAEFEVHEVYAVDVLVSSGEGKAKDAGQRTTIYKRDPSKQYGLKMKTSRAFFSEVERRFDAMPFTLRAFEDEKKARMGVVECAKHELLQPFNVLYEKEGEFVAQFKFTVLLMPNGPMRITSGPFEPDLYKSEMEVQDAELKALLQSSASRKTQKKKKKKASKTAENATSGETLEENEAGD
partner: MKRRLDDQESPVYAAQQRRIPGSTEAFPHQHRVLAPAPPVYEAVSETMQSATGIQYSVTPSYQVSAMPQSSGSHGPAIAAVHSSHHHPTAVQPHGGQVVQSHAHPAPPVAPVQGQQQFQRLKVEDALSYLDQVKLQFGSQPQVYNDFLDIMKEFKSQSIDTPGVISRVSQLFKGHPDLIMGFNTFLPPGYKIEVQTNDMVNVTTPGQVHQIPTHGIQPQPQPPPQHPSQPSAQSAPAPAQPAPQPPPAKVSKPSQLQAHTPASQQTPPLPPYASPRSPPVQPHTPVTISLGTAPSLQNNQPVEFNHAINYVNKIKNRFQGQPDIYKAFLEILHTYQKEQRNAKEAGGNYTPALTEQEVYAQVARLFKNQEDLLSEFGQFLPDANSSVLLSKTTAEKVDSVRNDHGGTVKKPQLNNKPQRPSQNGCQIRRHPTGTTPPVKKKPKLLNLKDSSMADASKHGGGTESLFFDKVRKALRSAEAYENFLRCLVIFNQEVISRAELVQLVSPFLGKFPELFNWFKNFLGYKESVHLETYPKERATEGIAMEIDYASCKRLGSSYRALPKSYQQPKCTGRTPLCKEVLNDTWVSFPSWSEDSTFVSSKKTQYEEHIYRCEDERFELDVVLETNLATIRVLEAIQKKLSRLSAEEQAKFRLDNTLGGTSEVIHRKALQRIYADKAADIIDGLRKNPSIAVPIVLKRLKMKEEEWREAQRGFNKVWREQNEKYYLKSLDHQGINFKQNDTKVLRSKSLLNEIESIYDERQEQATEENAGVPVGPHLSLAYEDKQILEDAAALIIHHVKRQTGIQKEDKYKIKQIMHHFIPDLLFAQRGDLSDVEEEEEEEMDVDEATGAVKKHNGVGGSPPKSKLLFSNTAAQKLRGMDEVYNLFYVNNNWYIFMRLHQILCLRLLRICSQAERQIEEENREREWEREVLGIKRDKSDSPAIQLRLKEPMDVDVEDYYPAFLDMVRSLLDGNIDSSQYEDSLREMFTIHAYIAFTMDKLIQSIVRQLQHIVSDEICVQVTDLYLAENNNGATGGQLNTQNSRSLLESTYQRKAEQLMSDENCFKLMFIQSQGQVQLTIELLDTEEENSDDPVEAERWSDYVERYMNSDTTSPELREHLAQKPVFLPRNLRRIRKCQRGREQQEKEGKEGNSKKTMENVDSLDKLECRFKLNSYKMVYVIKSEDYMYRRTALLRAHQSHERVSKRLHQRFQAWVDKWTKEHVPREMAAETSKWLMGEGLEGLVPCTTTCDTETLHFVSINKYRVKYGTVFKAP

Variants of: B1
Details: with sin3a_human SIN3A

effect of a mutation on the interaction | Variant
disrupting interaction | MSGEDEQQEQTIAEDLVVTKYKMGGDIANRVLRSLVEASSSGVSVLSLCEKGDAMIMEETGKIFKKEKEMKKGIAFPTSISVNNCVCHFSPLKSDQDYILKEGDLVKIDLGVHVDGFIANVAHTFVVDVAQGTQVTGRKADVIKAAHLCAEAALRLVKPGNQNTQVTEAWNKVAHSFNCTPIEGMLSHQLKQHVIDGEKTIIQNPTDQQKKDHEKAEFEVHEVYAVDVLVSSGEGKAKDAGQRTTIYKRDPSKQYGLKMKTSRAFFSEVERRFDAMPFTLRAFEDEKKARMGVVECAKHELLQPFNVLYEKEGEFVAQFKFTVLLMPNGPMRITSGPFEPDLYKSEMEVQDAELKAAAQSSASRKTQKKKKKKASKTAENATSGETLEENEAGD [L357A;L358A]
